Measurements as given in PMC3575409, “Identification of a Novel Protein-Protein Interaction Motif Mediating Interaction of GPCR-Associated Sorting Proteins with G Protein-Coupled Receptors” (PLoS ONE, 2013).

Assays:
[1] = molecular target: T1, purified full-length β2 adrenergic receptor (ADRB2) (human, UniProt P07550 1-413); test: SPR; competition: 1.1 µM ADRB2 or 0.30 µM CNR2 preincubated at least 1 h with a range of GASP peptide or control peptide, injected over captured GST-tagged central domain of GASP-1; 25°C; endpoint responses 20 s after injection end; details: both partners purified
T1 construct: human β2 adrenergic receptor; further tags may be present; also called full-length ADRB2; source: P. pastoris, solubilized in DDM/CHS, purified (HisTrap)

[2] = molecular target: T2, purified full-length cannabinoid receptor type 2 (CNR2) (human, UniProt P34972 1-360); test: as above; details: both partners purified
T2 construct: human cannabinoid receptor type 2; further tags may be present; also called full-length CNR2; source: P. pastoris, solubilized in DDM/CHS, purified (HisTrap)
T2 sequence (P34972 whole entry): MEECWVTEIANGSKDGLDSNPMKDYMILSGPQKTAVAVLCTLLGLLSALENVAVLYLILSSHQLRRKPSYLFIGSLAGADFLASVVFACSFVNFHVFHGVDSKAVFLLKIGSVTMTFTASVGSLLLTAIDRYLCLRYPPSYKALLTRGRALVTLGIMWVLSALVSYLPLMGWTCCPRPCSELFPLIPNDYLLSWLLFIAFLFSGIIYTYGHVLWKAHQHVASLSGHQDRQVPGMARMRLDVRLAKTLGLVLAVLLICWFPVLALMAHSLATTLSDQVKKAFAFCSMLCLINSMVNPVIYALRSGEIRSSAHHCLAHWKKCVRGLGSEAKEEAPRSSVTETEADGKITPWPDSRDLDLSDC

B1: GASP peptide (peptide)
peptide: RVKQEPRFEEEVIIGSWFWAEKEA
notes: 24 amino acids containing the first GASP motif of GASP-2; also called synthetic peptide of 24 amino acids containing the first GASP motif of GASP-2; source: synthetic peptide (Genecust, ≥85% purity)
Q: B1 was tested. Which IC50 [1] did it give?
A: ~100 µM

Q: What about the IC50 [2] of the same binder?
A: ~100 µM
